Assay [1] addresses T1, human B7H4, full length, on cells (human, UniProt Q7Z7D3 25-282).
T1 construct: Uniprot Q7Z7D3; Used for transfected HEK cells and for the B7H4-expressing human tumor cell lines (endogenous B7H4); also called VTCN1
T1 sequence: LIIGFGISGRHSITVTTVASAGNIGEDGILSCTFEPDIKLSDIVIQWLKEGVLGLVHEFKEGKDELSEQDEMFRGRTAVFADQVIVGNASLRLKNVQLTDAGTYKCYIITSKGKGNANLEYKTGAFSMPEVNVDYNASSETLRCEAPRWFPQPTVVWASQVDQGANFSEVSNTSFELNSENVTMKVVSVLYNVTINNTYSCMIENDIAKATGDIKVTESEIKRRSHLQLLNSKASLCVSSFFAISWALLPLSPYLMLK
Briefly: flow cytometry on MDA-MB-468 tumor cells [MDA-MB-468 right panel]. The protocol: Cells (3×10⁴ cells/well) were incubated in polystyrene 96-well round-bottom plates (Greiner bio-one, cat. no. 650180) with serial dilutions of antibodies (ranging from 0.000458 to 30 μg/mL in 4-fold dilution steps) in 100 μL PBS/0.1% BSA/0.02% azide (staining buffer) at 4° C. for 30 min. Experiments were performed in technical duplicate. After washing twice in staining buffer, cells were incubated in 50 μL secondary antibody at 4° C. for 30 min. As a secondary antibody, R-Phycoerythrin (PE)-conjugated goat-anti-human IgG F(ab′)₂ (1:500 in FACS buffer; Jackson ImmunoResearch Laboratories, Inc., West Grove, PA, cat. no. 109-116-098), was used. Cells were washed twice in staining buffer, re-suspended in 30 μL FACS buffer containing Topro-3 (1:10,000 dilution) and analyzed on an iQue Screener (Intellicyt Corporation, USA). Binding curves were analyzed using non-linear regression (sigmoidal dose-response with variable slope) using GraphPad Prism V7.02 software (GraphPad Software, San Diego, CA, USA).
Binding was analyzed by flow cytometry as described above.
(In flow cytometry, cells or beads pass a laser one at a time.)

The target in assay [2] is T2, B7H4-IgV/B7H3-IgC.
T2 construct: also called chimeric molecule with the IgV domain of B7H4 and the IgC domain of B7H3
T2 full-length chimeric protein on cells: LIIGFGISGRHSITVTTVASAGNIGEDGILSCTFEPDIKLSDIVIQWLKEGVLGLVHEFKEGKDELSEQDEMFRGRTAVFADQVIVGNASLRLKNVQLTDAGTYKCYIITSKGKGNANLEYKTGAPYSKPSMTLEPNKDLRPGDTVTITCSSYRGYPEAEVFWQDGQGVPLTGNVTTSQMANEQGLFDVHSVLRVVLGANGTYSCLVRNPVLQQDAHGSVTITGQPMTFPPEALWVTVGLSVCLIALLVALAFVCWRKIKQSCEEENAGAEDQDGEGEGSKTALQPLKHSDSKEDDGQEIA
Briefly: flow cytometry, HEK cells transiently transfected with B7H4-IgV/B7H3-IgC, PE anti-human IgG F(ab')2 [panel B7H4-IgV/B7H3-IgC].
Experimental: After washing twice in FACS buffer, cells were incubated with secondary antibody at 4° C. for 30 min. […] Next, cells were washed twice in FACS buffer, re-suspended in 20 μL FACS buffer and analyzed on an iQue Screener (Intellicyt Corporation, USA).
Further experiments were conducted to study the B7H4 domain specificity of the B7H4 antibodies in more detail, by analysis of full dose-response curves.

For assay [3], the target named is T3, recombinant hIgG1 Fc-tagged cynomolgus monkey B7H4 (Creative BioMart, cat. no. VTCN1-1517R) (cynomolgus monkey, UniProt Q7Z7D3 25-259 (human entry)).
T3 construct: Bought protein; also called cynomolgus monkey B7H4 extracellular domain
T3 sequence: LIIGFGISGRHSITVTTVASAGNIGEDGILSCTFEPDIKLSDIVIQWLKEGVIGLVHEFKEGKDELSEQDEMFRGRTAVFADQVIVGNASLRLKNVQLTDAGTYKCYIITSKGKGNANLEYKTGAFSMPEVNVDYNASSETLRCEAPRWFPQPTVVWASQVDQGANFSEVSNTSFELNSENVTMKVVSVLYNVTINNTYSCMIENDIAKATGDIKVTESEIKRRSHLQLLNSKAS
Briefly: BLI (Octet HTX); Fc-tagged cynomolgus B7H4 coupled to AR2G sensor, bispecific antibody in solution (monovalent B7H4 binding); 2nd experiment (R^2 0.97, below the 0.98 threshold). The protocol: (§1) In addition, the affinity of for cynomolgus monkey B7H4 was determined by BLI. […] Amine Reactive 2nd Generation (AR2G) biosensors (FortéBio, cat. no. 18-5092) were activated by reaction with 20 mM EDC (N-(3-Dimethylaminopropyl)-N′-ethylcarbodiimide hydrochloride) (FortéBio, cat. no. 18-1033) and 10 mM s-NHS (N-hydroxysulfosuccinimide sodium salt) (FortéBio, cat. no. 18-1067) for 300 s. The activated sensors were loaded with 10 μg/mL recombinant hIgG1 Fc-tagged cynomolgus monkey B7H4 (Creative BioMart, cat. no. VTCN1-1517R) in 10 mM Sodium Acetate pH 4.0 (FortéBio, cat. no. 18-1068) for 600 s and quenched with 1 M ethanolamine pH 8.5 (FortéBio, cat. no. 18-1071) for 300 s. […] A molecular mass of 150 kDa of the antibodies was used for calculations. For each antibody a reference sensor was used, which was incubated with Sample Diluent instead of antibody.
(§2) Data were acquired using Data Acquisition Software v9.0.0.49d (FortéBio) and analyzed with Data Analysis Software v9.0.0.12 (FortéBio). Data traces were corrected per antibody by subtraction of the reference sensor. The Y-axis was aligned to the last 10 s of the baseline, Interstep Correction alignment to dissociation and Savitzky-Golay filtering were applied. Data traces with a response<0.05 nm were excluded from analysis. […]
(In general: In BLI a coated tip is dipped into the sample, and binding shifts an interference pattern.)

The target in assay [4] is T3, recombinant hIgG1 Fc-tagged cynomolgus …. Kind of assay: BLI (Octet HTX); Fc-tagged cynomolgus B7H4 coupled to AR2G sensor, bispecific antibody in solution (monovalent B7H4 binding); 2nd experiment (R^2 0.97, below the 0.98 threshold); R^2 0.97, below the 0.98 quality threshold (footnote b). The protocol:
as §1, §2

Results on one molecule are retold here after patent US20240383982A1 (Genmab, published 2024).

B1: bsIgG1-huCD3-H101G-FEALxB7H4-C5-FEAR (bispecific antibody)
heavy 1: not shown
light 1: not shown
heavy 2: QLQLQESGPGLVKPSETLSLTCTVSGGSIKSGSYYWGWIRQPPGKGLEWIGNIYYSGSTYYNPSLRSRVTISVDTSKNQFSLKLSSVTAADTAVYYCAREGSYPNQFDPWGQGTLVTVSSASTKGPSVFPLAPSSKSTSGGTAALGCLVKDYFPEPVTVSWNSGALTSGVHTFPAVLQSSGLYSLSSVVTVPSSSLGTQTYICNVNHKPSNTKVDKRVEPKSCDKTHTCPPCPAPEFEGGPSVFLFPPKPKDTLMISRTPEVTCVVVAVSHEDPEVKFNWYVDGVEVHNAKTKPREEQYNSTYRVVSVLTVLHQDWLNGKEYKCKVSNKALPAPIEKTISKAKGQPREPQVYTLPPSREEMTKNQVSLTCLVKGFYPSDIAVEWESNGQPENNYKTTPPVLDSDGSFFLYSRLTVDKSRWQQGNVFSCSVMHEALHNHYTQKSLSLSPGK
light 2: not shown
notes: also called bslgG1-huCD3-H101G-FEALxB7H4-C5-FEAR
The term EC50 (read off the curve) denotes the concentration that produces a half-maximal response. The term koff denotes a measure of how fast the partners let go of each other. By kon is commonly meant the rate constant with which the complex forms. By Kd is commonly meant the concentration at which binding is half-saturated. With B1, the “EC50 (read off the curve)” value in assay [1] was around 0.6 µg/mL; in assay [2] it was around 1 µg/mL. Besides, the off-rate (koff) in assay [3] is 0.0025 s⁻¹. For the same molecule, the kon in assay [3] worked out at 420000 M⁻¹ s⁻¹. For the same molecule, the Kd in assay [4] came out at 6 nM.
